Results taken from patent US20220195404.

Target: TevCas9 H557A (I-TevI domain-linker-SaCas9 H557A nickase) (Enterobacteria phage T4 / Staphylococcus aureus) (UniProt P13299+J7RUA5)
Test: cleavage_in_vitro

| Substance | binding signal (fold rate vs wild-type EGFR) (faster cleavage of exon 19 deletion, PAM not stated) | relative cleavage rate (fold rate (reference)) (4-fold slower than exon 19 deletion substrate) |
| --- | --- | --- |
| EGFR guide RNA ; EGFR exon 19 deletion DNA substrate | 4 |  |
| EGFR guide RNA ; EGFR wild-type DNA substrate |  | 1 |
